{"source": "patent US4777250A", "about": "“Chymotrypsin model” (Northwestern University, priority 1986, dated 1988)", "key": {"[1]": {"tested_on": "CC(=O)Oc1ccc([N+](=O)[O-])cc1", "experiment": "purified protein, by the assay type", "details": "other: pH 8.0 (optimum pH), substrate p-nitrophenyl acetate, error limit ± 10%"}, "[2]": {"experiment": "Hydrolysis of esters by artificial chymotrypsin (Lineweaver-Burk)", "format": "biochemical", "details": "substrate m-t-butylphenyl acetate", "text": "The chymotrypsin model was examined for its catalytic activity in ester hydrolysis.\nIn FIG. 2 plot A represents the hydrolysis of p-nitrophenyl acetate by chymotrypsin and plot B represents the hydrolysis of m-t-butylphenyl acetate by the miniature organic model of chymotrypsin. [EA ]=1×10^-5 M; [EB ]=3×10^-5 M.\nFIG. 3 depicts the relative stability of both β-benzyme/m-t-butylphenyl acetate and α-chymotrypsin/p-nitrophenyl acetate (O) at elevated temperatures. The real enzyme has 245 amino acids whose conformation can be changed by disrupting hydrogen bonds by elevated temperature. In contrast, the artificial chymotrypsin has no amino acids. Abbreviations are explained by the equation [formula] The stability was obtained by determining the catalytic rate constant at various temperatures at pH 8.0 for chymotrypsin, using 400 nm with a Varian 200 spectrophotometer. β-benzyme activity for the artificial enzyme was determned at its optimum pH 10.7 and 288 nm."}}}
{"compound": "chymotrypsin (real enzyme, α-chymotrypsin) (Bos taurus)", "values": [{"measurement": "Km", "setting": "[1]", "value": 40, "unit": "µM"}, {"measurement": "kcat", "setting": "[1]", "value": 0.011, "unit": "s⁻¹"}, {"measurement": "kcat/Km", "setting": "[1]", "value": 275, "unit": "M⁻¹ s⁻¹"}]}
{"compound": "CC(=O)Oc1cccc(C(C)(C)C)c1", "note": "[m-t-butylphenyl acetate]", "values": [{"measurement": "kcat", "setting": "[2]; pH 10.7 (optimum pH), error limit ± 5%", "value": 0.028, "unit": "s⁻¹"}, {"measurement": "Km", "setting": "[2]; pH 10.7 (optimum pH), error limit ± 10%", "value": 133, "unit": "µM"}, {"measurement": "kcat/Km", "setting": "[2]; pH 10.7", "value": 210, "unit": "M⁻¹ s⁻¹"}]}
